Results from paper PMC2853123.
Read-outs that look alike come from different tables or passages of the source.

Assays:
Assay in all cases: EMSA
[1] = biological target: T1, MBNL1 (GST-MBNL1 1-260) (UniProt Q9NR56 1-260)
T1 sequence: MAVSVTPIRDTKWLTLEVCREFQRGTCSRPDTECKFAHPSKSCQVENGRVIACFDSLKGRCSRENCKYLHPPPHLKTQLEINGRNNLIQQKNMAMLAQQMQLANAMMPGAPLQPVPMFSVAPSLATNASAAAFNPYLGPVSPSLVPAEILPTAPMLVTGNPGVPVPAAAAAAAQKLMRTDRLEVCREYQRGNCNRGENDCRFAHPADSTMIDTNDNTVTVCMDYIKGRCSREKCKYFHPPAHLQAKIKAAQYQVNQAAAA

[2] = biological target: T1, MBNL1 (GST-MBNL1 1-260); remark: listed apart in the source
[3] = biological target: T1, MBNL1 (GST-MBNL1 1-260); remark: listed apart in the source
[4] = biological target: T1, MBNL1 (GST-MBNL1 1-260); remark: listed apart in the source
[5] = biological target: T1, MBNL1 (GST-MBNL1 1-260); remark: listed apart in the source

## CCUGCUUCGCUUCUGCAUUGUUCGGCCGGUUG (ssRNA) [A04 32mer]
[1]
  Kd: 0.18 µM

## CCGAUCCCGCUUAUGCCAUCCGCUGCAGUCAC (ssRNA) [F06 32mer]
[2]
  binding result: binds

B1: TNNT2 81mer template (ssRNA)
RNA: GGGAAUGGAUCCACAUCUACGAAUUCCCUGUCUCGCUUUUCCCCUCCGCUGCGGCCACAAGACUCGAUACGUGACGAACCU
[1]
  Kd: 0.03 µM

## CCUGUCUCGCUUUUCCCCUCCGCUGCGGCCAC (ssRNA) [TNNT2 32mer]
[1]
  Kd: 0.02 µM

## GCGGCGGGCAGCUGUGCUGGAGAGCAGAUGCUUCACCAAU (ssRNA) [INSR]
[1]
  Kd: 0.12 µM

## UGUUCCUCGCUUUUCGCCUCCGCUUCCGCCGC (ssRNA) [B07 32mer]
[1]
  Kd: 0.00066 µM

## CUGCUUCUGCUUCUGCUUCUGCUUCUGCUUCUGCUU (ssRNA) [(CUGCUU)6 (SELEX motif 1)]
[3]
  binding result: binds

## UGCCACUGCUGCUGCUGCGCUUCCAGUCAGGGUGGGCCGC (ssRNA) [ATP2A1]
[1]
  Kd: 0.015 µM

B2: H01 CA1-2 (ssRNA)
RNA: GGGAAUGGAUCCACAUCUACGAAUUCCCUCAUUUCAUAUUGCGCUGCAAUUCCUGUUCAAGACUCGAUACGUGACGAACCU
[4]
  binding signal: 12 fold lower affinity than H01

B3: F06 UCCA 81mer (ssRNA)
RNA: GGGAAUGGAUCCACAUCUACGAAUUCCCGAUCCUCCAUAUGCCAUCCGCUGCAGUCACAAGACUCGAUACGUGACGAACCU
[5]
  binding signal: 140 fold lower affinity than F06

## GCCGAGGAGGUGGUGUGAUUGCUUUAGCGCCGUCAUUUUC (ssRNA) [GRIN1]
[1]
  Kd: 0.28 µM

## CCUUUAUUGUGCAUGCUUAGUCUUGUUAUUCGUUGUAUAU (ssRNA) [MBNL1 site #2]
[1]
  Kd: 0.045 µM
